Measured values as given in FireProtDB (doi:10.1021/bi010565n).

Conditions: Aspergillus oryzae (strain ATCC 42149 / RIB 40), pH 7, Thermal, MOPS 30 mM, reversible: yes(0.94), whole UniProt chain shown

B1: Guanyl-specific ribonuclease T1 wild type, P00651 (protein)
chain: MMYSKLLTLTTLLLPTALALPSLVERACDYTCGSNCYSSSDVSTAQAAGYQLHEDGETVGSNSYPHKYNNYEGFDFSVSSPYYEWPILSSGDVYSGGSPGADRVVFNENNQLAGVITHTGASGNNFVECT
Tm (CD): 51.2 °C
Tm (DSC): 51.5 °C
